In paper PMC8437434:

Tests used:
[1] = target: tau^4R (residues 244-372, C322A) (UniProt P10636)
[2] = target: tau^4R (residues 244-372, C322A) (UniProt P10636); remark: listed apart in the source

tau^4R (residues 244-372, C322A), sequence (P10636 561-689 C639A): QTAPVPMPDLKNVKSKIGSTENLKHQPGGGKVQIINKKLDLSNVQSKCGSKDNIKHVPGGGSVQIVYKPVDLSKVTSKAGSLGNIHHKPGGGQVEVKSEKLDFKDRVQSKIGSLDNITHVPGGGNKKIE

| reduction of tau fibril mass (unnormalised ThT kinetics), DNAJB1:tau 0.5:1 (67%) to 1:1 [1] | reduction of tau fibril mass (kinetic measurements) at equimolar HSPB1:tau [2] | reduction of tau fibril mass (unnormalised ThT kinetics) at 1:1 HSPB1:tau [1] | Substance |
| --- | --- | --- | --- |
| 94% | – | – | full-length DNAJB1 (from UniProt P25685 1-340) (natural protein) |
| – | 45% | 47% | HSPB1 3D GXG variant (S15D, S78D, S82D, I181G, V183G) (from UniProt P04792 1-205) (natural protein) |
